In the experiment the target is T1, human GREM1 (hGREM1-His; SEQ ID NO: 595) (human, UniProt O60565 25-184).
T1 construct: also called biotin-hGREM1-His; recombinant human GREM1 protein
T1 sequence: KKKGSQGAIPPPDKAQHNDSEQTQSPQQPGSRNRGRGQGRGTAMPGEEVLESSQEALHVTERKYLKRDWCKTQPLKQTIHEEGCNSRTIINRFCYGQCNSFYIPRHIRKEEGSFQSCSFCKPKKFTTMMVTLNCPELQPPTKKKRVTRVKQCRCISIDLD
As to the kind of experiment: competition ELISA, 100 pM biotin-hGREM1-His on plate-coated hBMP4.

Experimental: Data were analyzed using a sigmoidal dose-response model within Prism™ software. […] The absorbance values of the wells containing the highest concentration for each antibody were used to determine the percent maximum blocking.

B1: H4H6243P (antibody, human IgG4, V domains shown)
VH: QVQLVQSGAEVKKPGASVKVSCKVSGYTLTELSMHWVRQAPGKGLEWMGGFDPEDGETIYAQKFQDRVTMTEDTSTDTAYMELSSLRSEDTAVYYCVTDDYEILPEYPYNMDVWGQGTTVTVSS
VL: DIQMTQSPSSLSASVGDRVTITCRASQSISTYLNWYQQKPGKAPKLLIYAASSLQSGVPSRFSGSGSGTDFTLTIRSLQPEDFATYYCQQSHITPFTFGPGTKVDIK
notes: H4H = human IgG4 Fc
Consider B1, for which the IC50 amounted to 7.2 pM.

The values above are taken from US20230192831A1 (published 2023).
